Test results published in US20220356229A1.
Values joined by “and” are separate entries in the source; they are usually repeats but may differ in a detail not shown here. Identical values can stand only once.

Each binder was assayed against full length Spike of WIV1 (WIV1). Settings: not given.

Row | Binder | fold over isotype control (median fluorescence) (fold over isotype)
1 | anti-SARS-CoV-2 antibody 318 (antibody, V domains shown) VH: QVQLVESGGGVVPPGRSLSLPCAASGFSFSAYAMHWLRQAPGKGLEWVAVISYDGTVKYVADSVRGRFTISRDNSNNTLYLQMTSLRSDDTAVYYCARDLGALAAAPTVYFVHWGQGTLVTVSS VL: SYVLTQPPSVSVAPGKTATITCAGEDIGRKSVHWYQQKPGQAPVLVIFYYSDRPSGIPDRFSGSVSGNTATLTIGRVEAGDEADYFCQVWDRTTNHVIFGGGTKVTVL | 291 and 166
2 | anti-SARS-CoV-2 antibody 311 (antibody, V domains shown) VH: QVQLQESGPGLVKPSETLSLTCTVSGYSISSGYYWGWIRQPPGKGLEWIGSIYHSGSTYYNPSLKSRVTISVDTSKNQFSLKLSSVTAADTAVYYCAREETLGSSWYESYIDYWGQGTLVTVSS VL: SYVLTQPPSVSVAPGKTARITCGGNNIGSKSVHWYQQKPGQAPVLVIYYDSDRPSGIPERFSGSNSGNTATLTISRVEAGDEADYYCQVWDSSSDHPRVFGGGTKLTVL | 1.11 and 1.14
3 | anti-SARS-CoV-2 antibody 304 (antibody, V domains shown) VH: EVQLLESGGGLVQPGGSLRLSCAASGFTFSTYAMSWVRQAPGKGLEWVSAISGSGGSTYYADSVKGRFTISRDNSKNTLYLQMNSLRAEDTAVYYCASGYSPDYWGQGTLVTVSS VL: AIQMTQSPSSLSASVGDRVTITCRASQGIRNDLGWYQQKPGKAPKLLIYAASSLQSGVPSRFSGSGSGTDFTLTISSLQPEDFATYYCLQDYNYPRTFGQGTKVEIK | 1.01 and 1.04
4 | anti-SARS-CoV-2 antibody 319 (antibody, V domains shown) VH: QVQLVESGGGVVQPGRSLRLSCAASGFNLSNYAMHWVRQASGKGLEWVSLISYDGSIKYYTDSVKGRFTVSGDNSKNTLFLQMNSLRPDDSALYYCVRGGVSGPNSFDMWGQGTTVTVSS VL: DVVMTQSPLSLPVTLGQPASISCRSSQSLVYSDGNTYVNWFQQRPGQSPRRLIYQVSIRASGVPDRFSGSGSGTDFALKISRVEAEDVGVYYCMQGTHWPVTFGQGTKVEIK | 96.2
5 | anti-SARS-CoV-2 antibody 316 (antibody, V domains shown) VH: QVHLVESGGGVVQPGRSLRLSCAASGFTLTAYAMHWVRQAPGKRLEWVALISYDGSVKKYADSVKGRITVSGDTSTNTLHLQMNSLRADDTAVYYCVRGGVSGPNSFDLWGQGTMVTVSS VL: DVVMTQSPLSLPVTLGQPASMSCRSSQSLEYSDGNTYVNWFHQRPGQSPRRLIYKVSYRDSGVPDRFSGSGSGTDFTLQISRVEAEDVGIYYCMQGTHWPVTFGQGTKVEIK | 93.8
6 | anti-SARS-CoV-2 antibody 315 (antibody, V domains shown) VH: QVQLVQSGSELKKPGASVKLSCQASGYSFTNHAMNWVRQAPGQGLEWMGWINTNTGNPTYAQGFTGRFVFSLDTSVSTTYLHISSLKAEDTAVYYCARASARPGVATNLDFWGQGTLVVVSS VL: DIQMTQSPSSLSASVGDRVTITCRASQNIDNYLNWYQQKPGKAPKLLIYAASRLHSGVPSRFSGSGSGTDFTLIISSLQPEDLATYYCQQSYSNPLTFGPGTKVDIR | 1.09

The binders below were run against T1, SARS-CoV-2 Spike (S) protein, wild type, full length (SARS-CoV-2), P0DTC2. Settings: remark: other sources report otherwise.

Row | Binder | fold over isotype (median fluorescence intensity) (fold over isotype) | median fluorescence, fold over isotype control (fold over isotype)
7 | antibody 325 (antibody, V domains shown) VH: QVQLQESGPGLVKPSQTLSLTCTVSGGSISGGGYYWSWIRQHPGKGLEWIGYIYYSGSTYYNPSLQSRVTISVDTSKNQFSLKLSSVTAADTAVYYCARVGTSSVWYFDYWGQGTLVTVSS VL: QSALTQPRSVSGSPGQSVTISCTGTSSDVGGYNYVSWYQQHPGKAPKLMIYDVTKRPSGVPDRFSGSKSGNTASLTISGLQAEDEADYYCSSYAGSWVFGGGTKLTVL | 1.08 | 
8 | antibody 493 (antibody, V domains shown) VH: EVQLVESGGGLIQPGRSLRLSCAASGFTVSITYMSWVRQAPGKGLEWVSLIYSGGSSYYADSVKGRFTISRDNSKNTLYLQMNSLRAEDTAVYYCATTMVRGVIISYYYGMDVWGQGTTVTVSS VL: QSALTQPASVSGSPGQSITISCTGTSSDVGGYNYVSWYQQHPGKAPKLMIYEVSNRPSGVSNRFSGSKSGNTASLTISGLQAEDEADYYCSSYTSSSTLVFGGGTKLTVL |  | 1.1
9 | antibody 495 (antibody, V domains shown) VH: QITLKESGPTLVKPTQTLTLTCTFSGFSLSTSGVGVGWIRQPPGKALEWLALIYWDDDKRYSPSLKSRLTITKDTSKNQVVLIMTNMDPVDTATYYCAHRDSSSWFDLDAFDIWGQGTMVIVSS VL: QSVLTQPPSVSEAPRQRVTISCSGSSSNIGNNAVNWYQQLPGKAPKLLIYYDDLLPSGVSDRFSGSKSGTSASLAISGLQSEDEADYYCAAWDDRLNGPVFGGGTKLTVL |  | 0.83
10 | antibody 362 (antibody, V domains shown) VH: QVQLVESGGGVVQPGRSLRLSCAASGFNLSNYAMHWVRQASGKGLEWVSLISYDGSVKYYTDSVKGRFTVSGDNSKNTLFLQMNSLRPDDSALYYCVRGGVSGPNSFDMWGQGTTVTVSS VL: DVVMTQSPLSLPVTLGQPATISCRSSQSLVYSDGNTYVNWFQQRPGQSPRRLIYQVSIRASGVPDRFSGSGSGTDFALKISRVEAEDVGVYYCMQGTHWPVTFGQGTKVEIK | 9.45 | 
11 | antibody 499 (antibody, V domains shown) VH: EVQLVESGGGLVKPGGSLRLSCAASGFTFSSYSMNWVRQAPGKGLEWVSSISSSSSYIYYADSVKGRFTISRDNAKNSLYLQMNSLRAEDTAVYYCARAPAGIVVGPDYWGQGTLVTVSS VL: NFMLTQPHSVSESPGKTVTISCTGSSGSIASNYVQWYQQRPGSAPTTVIFEDNQRPSGVPDRFSGSIDSSSNSASLTISGLKTEDEADYYCQSYHSSNPHVVFGGGTKLTVL |  | 0.9
12 | antibody 521 (antibody, V domains shown) VH: QVQLVESGGGVVQPGRSLRLSCAASGFTFSSYGMHWVRQAPGKGLEWVAVIWYDGSNKYYADSVKGRFTISRDNSKNTLYLQMNSLRAEDTAVYYCAREGNDYGDYGEWELLGYFDYWGQGTLVTVSS VL: SYELTQPPSVSVSPGQTARITCSGDALPKKYAYWYQQKSGQAPVLVIYEDSKRPSGIPERFSGSSSGTMATLTISGAQVEDEADYYCYSTDSSGNHRRVFGGGTKLTVL |  | 0.86
13 | antibody 322 (antibody, V domains shown) VH: EVQLVESGGGLVQPGGSLRLSCAASGFTFSSYWMSWVRQAPGKGLEWVANIKQDGSEKYYVDSVKGRFTISRDNAKNSLYLQMNSLRAEDTAVYYCARDEDVAAALDYWGQGTLVTVSS VL: SYVLTQPPSVSVAPGKTARITCGGNNIGSKSVHWYQQKPGQAPVLVIYYDSDRPSGIPERFSGSNSGNTATLTISRVEAGDEADYYCQVWDSSSDHPERVFGGGTKLTVL | 1.65 | 

What follows are binders tested against SARS-CoV-2 Spike protein, wild type, full length (SARS-CoV-2), P0DTC2. Settings: remark: other sources report otherwise.

Row | Binder | binding signal, fold over isotype control (fold over isotype)
14 | antibody 485 (antibody, V domains shown) VH: QVQLQESGPGLVKPSGTLSLTCAVSGASISSSNWWSWVRQPPGKGLEWIGEIYHSGSTNYNPSLKSRVTISVDKSKNQFSLKLSSVTAADTAVYYCARRSYYGSGSYYPFDYWGQGTLVTVSS VL: QSALTQPASVSGSPGQSITISCTGTSSDVGSYNLVSWYQQHPGKAPKLMIYEGRKRPSGVSNRFSGSKSGNTASLTISGLQAEDEADYYCCSYAGSSTYVFGTGTKVTVL | 510
15 | antibody 464 (antibody, V domains shown) VH: QVQLVQSGAEVKKPGASVKVSCKVSGYTLTELSMHWVRQAPGKGLEWMGGFDPEDGETIYAQKFQGRVTMTEDTSTDTAYMELSSLRSEDTAVYYCATARAFGVANWFDPWGQGTLVTVSS VL: QSVLTQPPSASGTPGQRVTISCSGSSSNIGSNYVYWYQQLPGTAPKLLIYRNNQRPSGVPDRFSGSKSGTSASLAISGLRSEDEADYYCAAWDDSLSGLYVFGTGTKVTVL | 1.27 and 0.99 and 1.04
16 | antibody 495 (antibody, V domains shown) VH: QITLKESGPTLVKPTQTLTLTCTFSGFSLSTSGVGVGWIRQPPGKALEWLALIYWDDDKRYSPSLKSRLTITKDTSKNQVVLIMTNMDPVDTATYYCAHRDSSSWFDLDAFDIWGQGTMVIVSS VL: QSVLTQPPSVSEAPRQRVTISCSGSSSNIGNNAVNWYQQLPGKAPKLLIYYDDLLPSGVSDRFSGSKSGTSASLAISGLQSEDEADYYCAAWDDRLNGPVFGGGTKLTVL | 1090 and 384 and 530
17 | antibody 499 (antibody, V domains shown) VH: EVQLVESGGGLVKPGGSLRLSCAASGFTFSSYSMNWVRQAPGKGLEWVSSISSSSSYIYYADSVKGRFTISRDNAKNSLYLQMNSLRAEDTAVYYCARAPAGIVVGPDYWGQGTLVTVSS VL: NFMLTQPHSVSESPGKTVTISCTGSSGSIASNYVQWYQQRPGSAPTTVIFEDNQRPSGVPDRFSGSIDSSSNSASLTISGLKTEDEADYYCQSYHSSNPHVVFGGGTKLTVL | 1120 and 386 and 432

Target: T1, SARS-CoV-2 Spike (S) protein, wild …
Settings: remark: other sources report otherwise
Remark: another data set of the same source

Row | Binder | bead binding signal (fold over isotype) (fold over isotype)
18 | antibody 267 (antibody, V domains shown) VH: EVHLVQSGAEMKKPGATVKISCKVSGNTFIDHYIQWVQQAPGKGFEWMGLVDPEDGETIYAEKFQGRVTITADTSRDTAYMELSSLKSEDTAVYYCGTHGDYLDYWGQGTLVTVSS VL: FYELTQPSSVSVSPGQTALITCSGDVVAKKYARWFQQKAGQAPVLVIYKDTERPSGIPERISGSSSGTTVTLTISGAQVEDEADYYCYSATDNNLVFGGGTKVTVL | 312
19 | antibody 270 (antibody, V domains shown) VH: QVQLVQSGAEVKRPGTSVKVSCKTSGYTFTDHFIHWVRQAPGRRLEWMGWINPNSGGTNYAQNFQGRVTMTRDTSITTAYMDLTRLTSDDTAIYYCAREAAYGSGNLNWFDPWGQGTRVTVSS VL: NFMLTQPHSVSESPGKTVTISCTGSSGSIAANYVHWYQQRPGSAPRTVIYEDNQRPSGVPDRFSGSIDSSSNSASLTISGLKTEDEADYYCQSYDGDSWVFGGGTKLTVL | 305
20 | antibody 269 (antibody, V domains shown) VH: QLQLQESGPGLVKPSETLSLTCTVSGGSISSSSYYWGWIRQPPGKGLEWIGNIYYSGSTYYNPSLKSRVTISVDTSKNQFSLKLSSVTAADTAVYYCAGEELDIVATIYSSRYYYYGMDVWGQGTTVTVSS VL: QSALTQPASVSGSPGQSITISCTGTSSDVGGYNYVSWYQQHPGKAPKLMIYEVSNRPSGVSNRFSGSKSGNTASLTISGLQAEDEADYYCSSYTSTSTLVFGGGTKLTVL | 480 and 191 and 188
21 | antibody 259 (antibody, V domains shown) VH: EVQLVQSGAEVKKPGATVKISCKVSGYTFTDYYMHWVQQAPGKGLEWMGLVDPEDGETIYAEKFQGRVTITADTSTDTAYMELSSLRSEDTAVYYCATDLLSWKLYCSGGSCPQMDVWGQGTTVTVSS VL: DIQMTQSPSSLSASVGDRVTITCRASQGIRNDLGWYQQKPGKAPKRLIYAASSLQSGVPSRFSGSGSGTEFTLTISSLQPEDFATYYCLQHNSYPQTFGQGTKLEIK | 275

These binders were tested against SARS-CoV-2 full length Spike protein, wild type (SARS-CoV-2), P0DTC2. Settings: remark: other sources report otherwise.

Row | Binder | bead binding signal (fold over isotype) (fold over isotype)
22 | antibody 362 (antibody, V domains shown) VH: QVQLVESGGGVVQPGRSLRLSCAASGFNLSNYAMHWVRQASGKGLEWVSLISYDGSVKYYTDSVKGRFTVSGDNSKNTLFLQMNSLRPDDSALYYCVRGGVSGPNSFDMWGQGTTVTVSS VL: DVVMTQSPLSLPVTLGQPATISCRSSQSLVYSDGNTYVNWFQQRPGQSPRRLIYQVSIRASGVPDRFSGSGSGTDFALKISRVEAEDVGVYYCMQGTHWPVTFGQGTKVEIK | 503
